To fix the notation:
B1: BMP-4 (ligand, UniProt P12644 293-408, looked up)
chain: SPKHHSQRARKKNKNCRRHSLYVDFSDVGWNDWIVAPPGYQAFYCHGDCPFPLADHLNSTNHAIVQTLVNSVNSSIPKACCVPTELSAISMLYLDEYDKVVLKNYQEMVVEGCGCR
B2: BMP-7 (ligand, UniProt P18075 293-431, looked up)
chain: STGSKQRSQNRSKTPKNQEALRMANVAENSSSDQRQACKKHELYVSFRDLGWQDWIIAPEGYAAYYCEGECAFPLNSYMNATNHAIVQTLVHFINPETVPKPCCAPTQLNAISVLYFDDSSNVILKKYRNMVVRACGCH
B3: BMP-6 (ligand, UniProt P22004 382-513, looked up)
chain: QQSRNRSTQSQDVARVSSASDYNSSELKTACRKHELYVSFQDLGWQDWIIAPKGYAANYCDGECSFPLNAHMNATNHAIVQTLVHLMNPEYVPKPCCAPTKLNAISVLYFDDNSNVILKKYRNMVVRACGCH
B4: activin (ligand, UniProt P08476 311-426, looked up)
chain: GLECDGKVNICCKKQFFVSFKDIGWNDWIIAPSGYHANYCEGECPSHIAGTSGSSLSFHSTVINHYRMRGHSPFANLKSCCVPTKLRPMSMLYYDDGQNIIKKDIQNMIVEECGCS
notes: also called activin A
B5: follistatin-Fc human chimera FS315-hFc (Sino Biological Inc. Catalog Number 10685-H02H) (Fc fusion)
chain: GNCWLRQAKNGRCQVLYKTELSKEECCSTGRLSTSWTEEDVNDNTLFKWMIFNGGAPNCIPCKETCENVDCGPGKKCRMNKKNKPRCVCAPDCSNITWKGPVCGLDGKTYRNECALLKARCKEQPELEVQYQGRCKKTCRDVFCPGSSTCVVDQTNNAYCVTCNRICPEPASSEQYLCGNDGVTYSSACHLRKATCLLGRSIGLAYEGKCIKAKSCEDIQCTGGKKCLWDFKVGRGRCSLCDELCPDSKSDEPVCASDNATYASECAMKEAACSSGVLLEVKHSGSCNSISEDTEEEEEDEDQDYSFPISSILEWALEVLFQGP
notes: Bought fusion protein; also called Sino Biological FS315-hFc; not shown: human Fc of the bought product
B6: BMP-9 (ligand, UniProt Q9UK05 320-429, looked up)
chain: SAGAGSHCQKTSLRVNFEDIGWDSWIIAPKEYEAYECKGGCFFPLADDVTPTKHAIVQTLVHLKFPTKVGKACCVPTKLSPISVLYKDDMGVPTLKYHYEGMSVAECGCR
B7: FS315 (R&D Systems) (other)
chain: GNCWLRQAKNGRCQVLYKTELSKEECCSTGRLSTSWTEEDVNDNTLFKWMIFNGGAPNCIPCKETCENVDCGPGKKCRMNKKNKPRCVCAPDCSNITWKGPVCGLDGKTYRNECALLKARCKEQPELEVQYQGRCKKTCRDVFCPGSSTCVVDQTNNAYCVTCNRICPEPASSEQYLCGNDGVTYSSACHLRKATCLLGRSIGLAYEGKCIKAKSCEDIQCTGGKKCLWDFKVGRGRCSLCDELCPDSKSDEPVCASDNATYASECAMKEAACSSGVLLEVKHSGSCNSISEDTEEEEEDEDQDYSFPISSILEW
B8: sActRIIB-hFc (Fc fusion, UniProt Q13705 25-134, looked up)
chain: ETRECIYYNANWELERTNQSGLERCEGEQDKRLHCYASWRNSSGTIELVKKGCWLDDFNCYDRQECVATEENPQVYFCCCEGNFCNERFTHLPEAGGPEVTYEPPPTAPT
notes: Control protein in the Biacore assay; also called sActRTIB-hFc; sActRIIB-Fc; not shown: human Fc
B11: BMP-2 (ligand, UniProt P12643 283-396, looked up)
chain: QAKHKQRKRLKSSCKRHPLYVDFSDVGWNDWIVAPPGYHAFYCHGECPFPLADHLNSTNHAIVQTLVNSVNSKIPKACCVPTELSAISMLYLDENEKVVLKNYQDMVVEGCGCR

A value given as a limit tells only on which side of the number the result lay.

Assay [1] deals with B7. The assay is described as follows: Biacore SPR, 25 C; FS315 immobilized on CM5 chip, ligand as soluble analyte. The text has this:
(§1) Specifically, commercially available follistatins (FS315, manufactured by R&D Systems and follistatin-Fc human chimera FS315-hFc, manufactured by Sino Biological), and FS315-GAG3-mFc fusion proteins were used to assess binding affinity and kinetics to activin, myostatin, and BMPs using Biacore assays. Briefly, FS315 was immobilized onto a CM5 chip, and follistatin-Fc fusion proteins were captured using human or mouse antibody capture kits (GE Healthcare). Post amine-coupling, a concentration series of activin, myostatin, or BMPs (e.g., BMP-2, -4, -6, -7, -9, -10, and GDF-1) was added as soluble analyte at 25° C. sActRTIB-hFc was used as a control. Binding affinities (Kd) and kinetics were determined using standard methods.

Assay [2] addresses B5. Kind of assay: Biacore SPR, 25 C; Fc fusion captured with human antibody capture kit, ligand as soluble analyte.
Description: as §1
Background: In SPR one partner is held on a chip, and binding of the other changes the refractive index at the surface.

Assay [3] has as its target B7. The assay is described as follows: Biacore SPR, 25 C; FS315 immobilized on CM5 chip, ligand as soluble analyte; FS315 (R&D Systems, no Fc) amine-coupled to CM5 chip; activin as soluble analyte; 25 C.
Description: as §1

Assay [4] has as its target T1, myostatin (UniProt O14793 267-375).
T1 sequence (looked up): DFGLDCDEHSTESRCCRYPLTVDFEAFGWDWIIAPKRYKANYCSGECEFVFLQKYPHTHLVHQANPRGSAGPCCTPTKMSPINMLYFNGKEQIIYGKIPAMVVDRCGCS
Kind of assay: Biacore SPR (Table 3).
Description: as §1

The target of assay [5] is T1, myostatin. Kind of assay: cell-based or functional assay.
The target of assay [6] is B4. The assay is described as follows: cell-based or functional assay.
Assay [7] has as its target B5. The assay is described as follows: Biacore SPR, 25 C; Fc fusion captured with antibody capture kit, ligand as soluble analyte.
Description: as §1

Assay [8] addresses T1, myostatin. Kind of assay: cell-based or functional assay. This is another data set of the same source.
For assay [9], the target named is B6. The assay is described as follows: cell-based or functional assay.
The target in the assay “BMP-2” is B11. The assay is described as follows: Biacore SPR, 25 C; Fc fusion captured with antibody capture kit, ligand as soluble analyte.
Description: as §1

The target of assay [10] is B6. Kind of assay: Biacore SPR, 25 C; Fc fusion captured with human antibody capture kit, ligand as soluble analyte.
Description: as §1

Assay [11] addresses B4. The assay is described as above.
Description: as §1

The assay “BMP-4” has as its target B1. The assay is described as above.
Description: as §1

For the assay “BMP-6”, the target named is B3. Described as above.
Description: as §1

The target of the assay “BMP-7” is B2. The description is as above.
Description: as §1

The target in the assay “sActRIIB-hFc” is B8. The description is as above.
Description: as §1

For assay [12], the target named is B7. The assay is described as follows: Biacore SPR, 25 C; FS315 immobilized on CM5 chip, ligand as soluble analyte; Table 3 cell for this pair: fitted KD, FS315 immobilized on CM5, BMP-10 as analyte, 25 C.
Description: as §1

As for B1, binding in the assay with FS315 (R&D Systems) [1] was put at a Kd of 14 nM.

On to B2, for which binding with FS315 (R&D Systems) [1] was characterised by a dissociation constant (Kd) of 38 nM.

For the molecule B3, the dissociation constant Kd – broadly, a measure of binding affinity in units of concentration – was found to be 0.36 nM with FS315 (R&D Systems) [1] and 0.9 nM in [2].

B4: the Kd came to 0.19 nM in assay [2] and 0.73 nM in the assay with FS315 (R&D Systems) [3].

Regarding B5, the “fold increase of binding affinity against follistatin (FS315)” value in the assay with myostatin [4] is not below 10 fold. For the same molecule, in the assay with myostatin [5], the “IC50, CAGA-luciferase reporter assay for Smad2/3 signaling (1.2 nM myostatin)” value turned out to be 2.99 nM. Besides, the “IC50, CAGA-luciferase reporter assay for Smad2/3 signaling (1.2 nM activin)” value in the assay with activin [6] was determined as 2.9 nM.

For B6, the binding result (with FS315 (R&D Systems) [1]; in assay [7]) was “no binding” throughout.

Turning to B7, in the assay with myostatin [5], the “IC50, CAGA-luciferase reporter assay for Smad2/3 signaling (1.2 nM myostatin)” value is 0.45 nM. Besides, the “IC50, CAGA-luciferase reporter assay for Smad2/3 signaling (1.2 nM activin)” value with activin [6] stood at 0.4 nM. Besides, the “IC50 (read off the curve); CAGA-luciferase reporter in HEK293 cells, myostatin (1.2 nM)-induced Smad2/3 signalling” value with myostatin [8] was approximately 0.2 nM.

With B8, the “IC50 (read off the curve); BRE-luciferase reporter in HEK293 cells, BMP-9-induced Smad1/5/8 signalling” value in the assay with BMP-9 [9] was approximately 20 nM. In addition, the binding result with BMP-2 was “no binding”. For the same molecule, the Kd with BMP-9 [10] is 0.054 nM; with activin [11], 0.07 nM; with BMP-4, 130 nM; with BMP-6 it was 0.057 nM; with BMP-7, 1.1 nM.

B9: BMP-10 (ligand, UniProt O95393 317-424, looked up)
chain: NAKGNYCKRTPLYIDFKEIGWDSWIIAPPGYEAYECRGVCNYPLAEHLTPTKHAIIQALVHLKNSQKASKACCVPTKLEPISILYLDKGVVTYKFKYEGMAVSECGCR
In the case of B9, the Kd in [2] is 150 nM; in the assay with sActRIIB-hFc, 0.01 nM; in the assay with FS315 (R&D Systems) [12] it was 100 nM.

B10: GDF-11 (ligand, UniProt O95390 299-407, looked up)
chain: NLGLDCDEHSSESRCCRYPLTVDFEAFGWDWIIAPKRYKANYCSGQCEYMFMQKYPHTHLVQQANPRGSAGPCCTPTKMSPINMLYFNDKQQIIYGKIPGMVVDRCGCS
On to B10, for which the Kd in assay [2] was determined as 0.82 nM; in the assay with sActRIIB-hFc it was 0.34 nM.

B11 had a Kd in the assay with FS315 (R&D Systems) [1] of 440 nM. Moreover, the binding result in assay [7] is “no binding”.
